For experiment [1], the target named is Cy.007 Fab:CyRPA complex, formed beforehand and purified by SEC (Plasmodium falciparum (3D7 clone) | …, UniProt Q8IFM8 29-362). Put plainly: SPR; PBS+P20.
For experiment [2], the target named is Cy.003 Fab:CyRPA complex, formed beforehand and purified by SEC (Plasmodium falciparum (3D7 clone) | …, UniProt Q8IFM8 29-362). Put plainly: SPR; PBS+P20.
For experiment [3], the target named is T1, Cy.002 Fab:CyRPA complex, formed beforehand and purified by SEC (Plasmodium falciparum (3D7 clone) | …, UniProt Q8IFM8 29-362). Put plainly: SPR; PBS+P20.
Experiment [4] addresses Cy.009 Fab:CyRPA complex, formed beforehand and purified by SEC (Plasmodium falciparum (3D7 clone) | …, UniProt Q8IFM8 29-362). Put plainly: SPR; TBS+P20, 1 mM CaCl2.
Experiment [5] concerns the target Cy.004 Fab:CyRPA complex, formed beforehand and purified by SEC (Plasmodium falciparum (3D7 clone) | …, UniProt Q8IFM8 29-362). Put plainly: SPR; TBS+P20, 1 mM CaCl2.
Experiment [6] deals with T1, Cy.002 Fab:CyRPA complex, formed …. Put plainly: SPR; TBS+P20, 1 mM CaCl2.

Numbering of substitutions follows the chain as printed.

B1: Cy.009, chimeric anti-CyRPA monoclonal antibody (chicken variable domains, human IgG1) (antibody, V domains shown)
VH: AVTLDESGGGLQTPGGALSLVCKASGFTFSDYAMGWVRQAPGKGLEYVAGIKSDGSFTLYGSTVKGRATISRDNGQSIVRLQLNNLRAEDTGTYYCAKSDDNGGHYSDFSGEIDAWGHGTEVIVSS
VL: RCALTQPSSVSANPGETVKITCSGSSYSYGWYQQKSPGSAPVTVIYYNDKRPSDIPSRFSGSKSGSTGTLTITGVQAEDEAVYFCGNSDSRNAAFGAGTTLTVL
With B1, the Kd in experiment [1] stood at 2100 nM; in experiment [2], 260 nM; in experiment [3] it was 1500 nM. For the same molecule, in experiment [3], the koff was 0.17 s⁻¹.

B2: Cy.004, chimeric anti-CyRPA monoclonal antibody (chicken variable domains, human IgG1) (antibody, V domains shown)
VH: AVTLDESGGGLQTPGGALSLVCKASGFDFSSYAMGWVRQAPGKGLEYVAGIRNDGSFTLYTPAVKGRATISRDNGQSTVRLQLNNLRAEDTATYFCTKSADDGGHYSDFSGEIDAWGHGTEVIVSS
VL: B1 VL with S26T, S28N, F84Y, A93V
B2: the figures for the Kd in experiment [1], in experiment [2] and in experiment [3] were 390 nM, 410 nM and 1800 nM, respectively. In experiment [3], this molecule returned a koff of 0.39 s⁻¹.

B3: Cy.007, chimeric anti-CyRPA monoclonal antibody (chicken variable domains, human IgG1) (antibody, V domains shown)
VH: AVTLDESGGGLQTPGGTLSLVCKGSGFTFSSYEMQWVRQAPGKGLEWVADICIGGSYTGYGPAVKGRATISRDDGQSTVRLQLNNLRAEDTGTYYCAKTARSDYCITGLDDIDAWGHGTEVIVSS
VL: RCALTQPSSVSANPGETVKITCSGGSSDYGWYQQKSPGSAPVTVIYENNKRPSDIPSRFSGSKFGSTHTLTITGVQADDEAVYFCGSRDTNNGAFGAGTTLTVL
Regarding B3, the Kd was found to be 2.6 nM in experiment [4], 1.6 nM in experiment [5] and 11 nM in experiment [6]. Besides, the dissociation rate constant (koff) in experiment [6] is 0.0024 s⁻¹.

B4: Cy.003, chimeric anti-CyRPA monoclonal antibody (chicken variable domains, human IgG1) (antibody, V domains shown)
VH: AVTLDESGGGLQTPGGALSLVCKGSGFFSFSSYTMQWVRQAPGKGLEWVASISSGGGTNYGAAVKGRATISRDNGQSTLRLQLNNLRAEDTGTYYCAKHGVNGCDWSYSVGCVDAWGHGTEVIVSS
VL: RCALTQPSSVSANPGETVKITCSGGSSSYYGWYQQKSPGSAPVTLIYNNQKRPSDIPSRFSGSKSGSTGTLTITGVQAEDEAVYFCGSRDNSGGIFGAGTTLTVL
As for B4, the Kd came out at 8.6 nM in experiment [4], 13 nM in experiment [5] and 77 nM in experiment [6]. For the same molecule, the koff in experiment [6] was found to be 0.0048 s⁻¹.

These data come from publication PMC8854392 (2022).
